According to patent US20110135573A1, “METALLOPROTEINASE 9 AND METALLOPROTEINASE 2 BINDING PROTEINS” (DYAX CORP., priority 2009, published 2011):

Legend:
[1] = molecular target: T1, human pro-MMP-9 (Homo sapiens, UniProt P14780); assay: Biacore 3000 binding to antibody-coated CM5 chip; conditions: Direct capture, 25° C.
T1 construct: the human pro-MMP-9 (R&D, 911-MP); purchased R&D Systems 911-MP
Description: (§1) Experiments were performed at 25° C. with the help of a Biacore 3000 instrument. The MMP-9 binding protein (M0166F10) and the M0237-D02 antibody were coated to a CM5 chip either via standard amine coupling or using an anti-Fc antibody surface. Then either the active, human MMP-9 catalytic domain (BIOMOL, SE-244), the human pro-MMP-9 (R&D, 911-MP), the human TIMP-1 (R&D, 970-TM) or a h-MMP-9/h-TIMP-1 complex were flowed over the antibody surfaces, and binding was recorded.

[2] = molecular target: T2, Human MMP-9 catalytic domain (Homo sapiens, UniProt P14780); assay: Biacore 3000 binding to antibody-coated CM5 chip; conditions: 25° C.
T2 construct: Human MMP-9 catalytic domain (BIOMOL, SE-244); purchased BIOMOL SE-244
Description: as §1

[3] = molecular target: T3, human TIMP-1 (Homo sapiens, UniProt P01033); assay: Biacore 3000 binding to antibody-coated CM5 chip; conditions: Direct capture; 25° C.
T3 construct: purchased R&D Systems 970-TM
Description: as §1

[4] = molecular target: T4, Mouse MMP-9 (Mus musculus, UniProt P41245); assay: Ki measurement and inhibition model, fluorogenic substrate Mca-KPLGL-Dap(Dnp)-AR-NH2; format: biochemical; conditions: fluorogenic peptide substrates
T4 construct: purchased R&D Systems 909-MM (909-MM-010)
Description: (§2) This example characterized the interaction of the M0237-D02 hIgG1 with the human and mouse MMP-9. The Ki was measured and the inhibition mechanism was determined
(§3) Materials: • Substrate: Mca-KPLGL-Dap(Dnp)-AR-NH2 (M-2350) from BACHEM (521575). A 10 mM stock solution was prepared in DMSO. • Enzymes: • Human MMP-9 catalytic domain (BIOMOL, SE-244). Enzyme concentration was measured by titration with TIMP-1 (2522-104) • Mouse MMP-9 (R&D, 909-MM), APMA-activated. • M0237-D02 hIgG1: 2517-014. Dialysed against TCN. • TCNB: 50 mM Tris/HCl, 10 mM CaCl2, 150 mM NaC, […], pH 7.5. • -96-well black plates from Perkin Elmer (6005270) • Spectramax M2e to measure fluorescence emission of the substrate upon hydrolysis (temperature control set at 30° C.; λexc=328 nm and λem=393 nm)
(§4) The enzyme (final concentration=0.23 and 0.17 nM for the human and mouse MMP-9, respectively) was preincubated with various concentrations (0-50 nM) of M0237-D02 for 1 h at 30° C. The substrate was then added to a final concentration ranging from 5 to 40 μM and initial rates were recorded.
(§5) Each data point was measured in triplicate, and initial rates were averaged.
(§6) Averaged initial rates were plotted against the M0237-D02 concentration for each substrate concentration, and IC50's were calculated using the following equation: […]
(§7) The IC50 values were then plotted against the substrate concentration.

[5] = molecular target: T2, Human MMP-9 catalytic domain; assay: as above; format: biochemical; conditions: fluorogenic peptide substrates
Description: as §2, §3, §4, §5, §6, §7

[6] = molecular target: T4, Mouse MMP-9; assay: Enzyme inhibition assay (single point inhibition, IC50/Ki,app), substrate M-2350; format: biochemical
Description: (§8) 343 unique sFabs from the anti-MMP-9/-2 M237-D02 affinity maturation campaign were discovered by phage display, produced in small scale (6 mL cultures in deep 24-well plates) and screened to select inhibitors with sub-nanomolar potency against the human enzymes and at least single-digit nanomolar potency toward the mouse orthologues. […] Isolates which appeared potent against both human and mouse MMP-2 were then subjected to IC50 analysis against hMMP-9. Sub-nanomolar inhibitors of hMMP-9 were further tested by IC50 analysis against mMMP-9 and h/m MMP-2, if sufficient small-scale sFab material was available. Thirteen potential h/m MMP-9/-2 sFab inhibitors were then produced in medium scale (250 mL cultures in flasks) and retested for h/m MMP-9 and h/m MMP-2 inhibition. Five potential lead candidates were reformatted as IgGs and retested in enzyme inhibition assays.
(§9) Human MMP-9 (Biomol #SE-244), mouse MMP-9 (R&D Systems #909-MM-010), human MMP-2 (Biomol #SE-237) and mouse MMP-2 (R&D Systems #924-MP-010) were tested at final concentrations of 1 nM, 0.25-0.4 nM, 2.5 nM and 0.2 nM, respectively. Target enzymes were incubated with inhibitor for two hours at 30° C. in reaction buffer (50 mM Tris-HCl pH 7.5, 150 mM NaCl, 5 mM CaCl2, 0.05% Brij-35) in a total volume of 90 μL using a white 96 well plate (Costar). Reactions contained 5 μL of small-scale sFab stock solution (average concentration of 500 nM) for single point inhibition analysis or a concentration series of sFab/IgG for IC50 Ki,app determinations. Commercially available anti-MMP-9 antibodies (Millipore mAb 13415 and R&D Systems polyclonal IgG #AB911) were tested by IC50 analyses using 100 nM and 500 nM as the highest inhibitor concentrations, respectively. An anti-MMP-2 antibody (R&D Systems polyclonal IgG #AF902) was similarly tested with 200 nM as the highest inhibitor concentration. Reactions were initiated by the addition of 10 μL of a 10× concentrated stock of substrate, Mca-Lys-Pro-Leu-Gly-Leu-Dap(Dnp)-Ala-Arg-NH2, (Bachem M-2350), at final concentration of 10 μM and monitored at 30° C. in a Molecular Devices' Gemini fluorescence plate reader. The excitation and emission wavelengths were set at 328 nm and 393 nm, respectively. Kinetic data were acquired by the increase in fluorescence, and initial rates for each condition were plotted against the total inhibitor concentration. Reactions were performed in duplicates and all data replicates were plotted in a single graph and fit to the following equation^1:
(§10) Where A=initial rate observed at each inhibitor concentration; Ao=initial rate observed in the absence of inhibitor; Ainh=initial rate observed for the enzyme inhibitor complex; Inh=concentration of inhibitor; E=total enzyme concentration (treated as a floated parameter); and Ki,app=apparent equilibrium inhibition constant.

[7] = molecular target: T5, human MMP-2 (Homo sapiens, UniProt P08253); assay: as above; format: biochemical
T5 construct: purchased Biomol SE-237
Description: as §8, §9, §10

[8] = molecular target: T6, mouse MMP-2 (Mus musculus, UniProt P33434); assay: as above; format: biochemical
T6 construct: purchased R&D Systems 924-MP-010
Description: as §8, §9, §10

[9] = molecular target: MMP-9 (Homo sapiens, UniProt P14780); assay: as above; format: biochemical; parameters: Human MMP-9 catalytic domain (BIOMOL, SE-244); purchased BIOMOL SE-244
Description: as §8
as §9, with “Commercially available anti-MMP-9 antibodies (Millipore mAb 13415 and R&D Systems polyclonal IgG #AB911) were tested by IC50 analyses using 100 nM and 500 nM as the highest inhibitor concentrations, respectively. An anti-MMP-2 antibody (R&D Systems polyclonal IgG #AF902) was similarly tested with 200 nM as the highest inhibitor concentration.” left out, “The excitation and emission wavelengths were set at 328 nm and 393 nm, respectively.” left out, “Reactions were performed in duplicates and all data replicates were plotted in a single graph and fit to the following equation^1:” left out

T2 sequence (P14780 107-444 limits assumed): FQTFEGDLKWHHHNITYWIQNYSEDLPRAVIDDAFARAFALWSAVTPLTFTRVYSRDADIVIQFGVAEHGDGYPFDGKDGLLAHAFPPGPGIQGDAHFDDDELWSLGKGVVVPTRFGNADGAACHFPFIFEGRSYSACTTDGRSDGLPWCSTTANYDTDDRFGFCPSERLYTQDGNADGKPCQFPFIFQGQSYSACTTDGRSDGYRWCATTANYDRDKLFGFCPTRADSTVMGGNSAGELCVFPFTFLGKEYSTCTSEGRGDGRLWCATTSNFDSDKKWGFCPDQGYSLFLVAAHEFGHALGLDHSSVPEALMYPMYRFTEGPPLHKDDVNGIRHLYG
T6 sequence (P33434 110-662): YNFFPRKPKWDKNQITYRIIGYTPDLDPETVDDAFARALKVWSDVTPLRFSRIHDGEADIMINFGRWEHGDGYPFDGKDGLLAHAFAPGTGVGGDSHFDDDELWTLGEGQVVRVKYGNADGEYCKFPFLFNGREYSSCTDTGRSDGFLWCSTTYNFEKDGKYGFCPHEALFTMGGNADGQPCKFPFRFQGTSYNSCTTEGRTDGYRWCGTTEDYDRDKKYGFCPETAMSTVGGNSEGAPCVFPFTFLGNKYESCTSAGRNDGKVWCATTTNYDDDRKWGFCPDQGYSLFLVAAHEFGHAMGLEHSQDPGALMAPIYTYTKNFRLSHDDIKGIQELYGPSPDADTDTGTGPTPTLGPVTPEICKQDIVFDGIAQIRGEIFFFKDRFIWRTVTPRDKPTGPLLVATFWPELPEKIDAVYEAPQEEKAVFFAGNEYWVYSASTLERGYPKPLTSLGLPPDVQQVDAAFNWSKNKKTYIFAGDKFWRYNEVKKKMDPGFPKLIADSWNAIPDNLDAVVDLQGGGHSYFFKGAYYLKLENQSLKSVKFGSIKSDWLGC
T1 sequence (P14780 20-707 limits assumed): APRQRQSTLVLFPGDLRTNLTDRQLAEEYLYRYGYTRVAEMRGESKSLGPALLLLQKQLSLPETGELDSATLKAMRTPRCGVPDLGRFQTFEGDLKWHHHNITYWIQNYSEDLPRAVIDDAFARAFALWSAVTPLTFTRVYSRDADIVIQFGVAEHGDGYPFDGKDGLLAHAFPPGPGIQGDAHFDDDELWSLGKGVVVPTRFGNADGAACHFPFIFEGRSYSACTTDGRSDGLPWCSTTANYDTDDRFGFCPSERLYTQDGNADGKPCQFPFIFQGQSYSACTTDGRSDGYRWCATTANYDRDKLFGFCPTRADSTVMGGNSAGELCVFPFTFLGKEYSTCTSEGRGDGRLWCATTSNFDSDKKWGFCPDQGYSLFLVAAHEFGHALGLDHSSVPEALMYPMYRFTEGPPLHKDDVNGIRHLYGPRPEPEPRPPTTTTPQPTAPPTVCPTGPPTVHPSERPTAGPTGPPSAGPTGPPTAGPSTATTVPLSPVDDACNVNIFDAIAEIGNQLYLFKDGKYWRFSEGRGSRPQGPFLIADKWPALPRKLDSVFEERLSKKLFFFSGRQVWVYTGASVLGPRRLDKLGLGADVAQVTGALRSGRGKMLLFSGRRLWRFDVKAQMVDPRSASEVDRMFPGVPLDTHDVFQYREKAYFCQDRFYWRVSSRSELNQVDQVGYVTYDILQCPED
T4 sequence (P41245 108-730): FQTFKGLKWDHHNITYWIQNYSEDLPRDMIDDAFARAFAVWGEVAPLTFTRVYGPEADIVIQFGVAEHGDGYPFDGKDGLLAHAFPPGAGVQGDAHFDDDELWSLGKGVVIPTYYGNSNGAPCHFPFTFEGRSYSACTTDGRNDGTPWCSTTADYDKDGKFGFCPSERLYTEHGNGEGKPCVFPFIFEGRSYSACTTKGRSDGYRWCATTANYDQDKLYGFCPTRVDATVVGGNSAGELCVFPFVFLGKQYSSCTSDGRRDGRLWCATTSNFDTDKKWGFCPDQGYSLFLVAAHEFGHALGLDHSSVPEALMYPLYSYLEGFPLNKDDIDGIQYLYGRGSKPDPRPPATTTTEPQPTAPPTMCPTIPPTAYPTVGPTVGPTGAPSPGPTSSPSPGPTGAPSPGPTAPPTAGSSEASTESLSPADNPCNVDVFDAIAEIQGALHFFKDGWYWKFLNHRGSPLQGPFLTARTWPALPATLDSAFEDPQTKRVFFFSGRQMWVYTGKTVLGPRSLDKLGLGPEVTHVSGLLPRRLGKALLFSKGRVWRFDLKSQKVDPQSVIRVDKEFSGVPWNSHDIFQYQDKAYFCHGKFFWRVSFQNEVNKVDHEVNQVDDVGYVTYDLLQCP
T3 sequence (P01033 24-207): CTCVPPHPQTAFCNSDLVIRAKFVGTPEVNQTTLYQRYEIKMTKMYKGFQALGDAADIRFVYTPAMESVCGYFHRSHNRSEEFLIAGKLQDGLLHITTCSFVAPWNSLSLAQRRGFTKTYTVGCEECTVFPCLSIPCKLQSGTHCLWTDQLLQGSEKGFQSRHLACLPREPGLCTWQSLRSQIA
Chain of MMP-9 (P14780 107-444 limits assumed): as the sequence (P14780 107-444 limits assumed) above
T5 sequence (P08253 110-446 limits assumed): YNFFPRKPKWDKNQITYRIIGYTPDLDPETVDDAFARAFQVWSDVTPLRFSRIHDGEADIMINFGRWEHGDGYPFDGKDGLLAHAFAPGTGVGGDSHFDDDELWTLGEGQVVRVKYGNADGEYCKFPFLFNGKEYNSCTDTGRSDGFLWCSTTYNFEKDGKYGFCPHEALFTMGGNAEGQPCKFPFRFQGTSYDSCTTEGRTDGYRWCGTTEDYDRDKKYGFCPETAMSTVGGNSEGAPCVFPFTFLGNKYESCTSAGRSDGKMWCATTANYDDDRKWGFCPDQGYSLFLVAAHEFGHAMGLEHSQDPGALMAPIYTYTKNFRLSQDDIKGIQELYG

B1: M0237-D02: MMP-9/-2 dual reactive antibody inhibitor (parental); sFab and hIgG1 (antibody, V domains shown)
VH: EVQLLESGGGLVQPGGSLRLSCAASGFTFSQYPMWWVRQAPGKGLEWVSYIVPSGGRTYYADSVKGRFTISRDNSKNTLYLQMNSLRAEDTAVYYCAKDRAYGDYVGWNGFDYWGQGTLVTVSS
VL: DIQMTQSPATLSLSPGERATLSCRASQSISSFLAWYQQKPGQAPRLLIYDASYRATGIPARFSGSGSGTDFTLTISSLEPEDYAVYYCQQRGNWPITFGQGTRLEIK
Question: Which “binding of Pro-huMMP-9” value ([1]; listed as 539A-M0237D02) does the source give for B1 here?
Answer: No

Question: What about the “binding of Pro-huMMP-9” value ([1]; listed as M237-D02) of the same molecule?
Answer: observed neither

Question: What about the “binding of Cat-huMMP-9” value ([2]; Direct capture (amine coupling)) of the same molecule?
Answer: No

Question: And the “binding of Cat-huMMP-9” value ([2]; Fc capture (anti-Fc antibody surface))?
Answer: could be observed

Question: What about the “binding of Cat-huMMP-9” value ([2]; Fc capture (anti-Fc antibody surface), listed as 539A-M0237D02) of the same molecule?
Answer: Yes

Question: And the “binding of huTIMP-1” value [3]?
Answer: No

Question: What about the inhibition model [4] of the same molecule?
Answer: non competitive inhibitor

Question: What about the inhibition model [5] of the same molecule?
Answer: non competitive inhibitor

Question: What about the “affinity for mMMP-9 (in words)” value [6] of the same molecule?
Answer: high affinity

Question: And the “affinity for hMMP-2 (in words)” value [7]?
Answer: high affinity

Question: And the “affinity for mMMP-2 (in words)” value [8]?
Answer: low affinity

Question: And the Ki ([8]; IgG, Table 12)?
Answer: 76 nM

Question: And the “affinity for hMMP-9 (in words)” value [9]?
Answer: high affinity
